# Laboratory results: patent publication US20160272683A1 (Novo Nordisk, published 2016)
# Numbered stars: 1 amine (or outer) side, 2 acyl side, 3 side chain; on linkers, the order of the positions; unused ones are H or OH. Ends that are not written are not given here. * marks the point of attachment. C20 diacid = O=C(O)CCCCCCCCCCCCCCCCCCC(=O)*; C18 diacid = O=C(O)CCCCCCCCCCCCCCCCC(=O)*; γGlu = O=C(O)[C@H](CCC(=O)[*:2])N[*:1]
# T1: human amylin 3(a) receptor (human calcitonin receptor co-expressed with RAMP-3) (human, UniProt P30988 25-474; O60896 24-148, limits assumed)
# T1 sequence (looked up) 1: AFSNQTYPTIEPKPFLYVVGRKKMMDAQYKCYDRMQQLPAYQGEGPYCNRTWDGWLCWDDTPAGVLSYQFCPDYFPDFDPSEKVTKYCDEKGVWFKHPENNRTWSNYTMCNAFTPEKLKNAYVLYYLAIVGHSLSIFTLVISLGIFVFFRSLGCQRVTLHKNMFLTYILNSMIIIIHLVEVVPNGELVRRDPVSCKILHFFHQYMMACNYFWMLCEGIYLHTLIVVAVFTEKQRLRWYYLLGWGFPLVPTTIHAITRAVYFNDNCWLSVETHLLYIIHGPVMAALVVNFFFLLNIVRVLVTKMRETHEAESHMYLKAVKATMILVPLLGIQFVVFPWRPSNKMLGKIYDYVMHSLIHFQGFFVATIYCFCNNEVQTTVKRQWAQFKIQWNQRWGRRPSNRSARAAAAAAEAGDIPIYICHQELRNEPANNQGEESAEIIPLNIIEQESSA
# T1 sequence (looked up) 2: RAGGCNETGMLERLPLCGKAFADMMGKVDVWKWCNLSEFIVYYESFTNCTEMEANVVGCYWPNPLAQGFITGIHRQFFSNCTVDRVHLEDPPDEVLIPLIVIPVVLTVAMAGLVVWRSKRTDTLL
# T2: human calcitonin receptor (human, UniProt P30988 25-474)
# T2 sequence (looked up): T1 sequence (looked up) 1
# B1: [N-terminal(C20 diacid-gGlu), des1, 4G, 9V, 12K, 15Q, 21Q, 23Y, 25P, 30S, 31G, 32T, 33Y]mimylin (peptide)
# peptide: {C20 diacid-γGlu}-ASGLSTAVLGKLSQELHELQTYPPTETGSGTY-NH2
# SMILES: CC(C)C[C@H](NC(=O)CNC(=O)[C@H](CO)NC(=O)[C@H](C)NC(=O)CC[C@H](NC(=O)CCCCCCCCCCCCCCCCCCC(=O)O)C(=O)O)C(=O)N[C@@H](CO)C(=O)N[C@H](C(=O)N[C@@H](C)C(=O)N[C@H](C(=O)N[C@@H](CC(C)C)C(=O)NCC(=O)N[C@@H](CCCCN)C(=O)N[C@@H](CC(C)C)C(=O)N[C@@H](CO)C(=O)N[C@@H](CCC(N)=O)C(=O)N[C@@H](CCC(=O)O)C(=O)N[C@@H](CC(C)C)C(=O)N[C@@H](Cc1c[nH]cn1)C(=O)N[C@@H](CCC(=O)O)C(=O)N[C@@H](CC(C)C)C(=O)N[C@@H](CCC(N)=O)C(=O)N[C@H](C(=O)N[C@@H](Cc1ccc(O)cc1)C(=O)N1CCC[C@H]1C(=O)N1CCC[C@H]1C(=O)N[C@H](C(=O)N[C@@H](CCC(=O)O)C(=O)N[C@H](C(=O)NCC(=O)N[C@@H](CO)C(=O)NCC(=O)N[C@H](C(=O)N[C@@H](Cc1ccc(O)cc1)C(N)=O)[C@@H](C)O)[C@@H](C)O)[C@@H](C)O)[C@@H](C)O)C(C)C)[C@@H](C)O
# B2: [N-terminal(C20 diacid-gGlu), des1, 4G, 9V, 15Q, 21Q, 23aQ, 23bT, 23cY, 30S, 31Q, 32T, 33Y]mimylin (peptide)
# peptide: {C20 diacid-γGlu}-ASGLSTAVLGRLSQELHELQTLQTYPRTETGSQTY-NH2
# SMILES: CC(C)C[C@H](NC(=O)CNC(=O)[C@H](CO)NC(=O)[C@H](C)NC(=O)CC[C@H](NC(=O)CCCCCCCCCCCCCCCCCCC(=O)O)C(=O)O)C(=O)N[C@@H](CO)C(=O)N[C@H](C(=O)N[C@@H](C)C(=O)N[C@H](C(=O)N[C@@H](CC(C)C)C(=O)NCC(=O)N[C@@H](CCCNC(=N)N)C(=O)N[C@@H](CC(C)C)C(=O)N[C@@H](CO)C(=O)N[C@@H](CCC(N)=O)C(=O)N[C@@H](CCC(=O)O)C(=O)N[C@@H](CC(C)C)C(=O)N[C@@H](Cc1c[nH]cn1)C(=O)N[C@@H](CCC(=O)O)C(=O)N[C@@H](CC(C)C)C(=O)N[C@@H](CCC(N)=O)C(=O)N[C@H](C(=O)N[C@@H](CC(C)C)C(=O)N[C@@H](CCC(N)=O)C(=O)N[C@H](C(=O)N[C@@H](Cc1ccc(O)cc1)C(=O)N1CCC[C@H]1C(=O)N[C@@H](CCCNC(=N)N)C(=O)N[C@H](C(=O)N[C@@H](CCC(=O)O)C(=O)N[C@H](C(=O)NCC(=O)N[C@@H](CO)C(=O)N[C@@H](CCC(N)=O)C(=O)N[C@H](C(=O)N[C@@H](Cc1ccc(O)cc1)C(N)=O)[C@@H](C)O)[C@@H](C)O)[C@@H](C)O)[C@@H](C)O)[C@@H](C)O)C(C)C)[C@@H](C)O
# B3: [N-terminal(C18 diacid), 18A]mimylin (peptide)
# peptide: {C18 diacid}-EASELSTAALGRLSAELAELATLPRTETGPESP-NH2
# SMILES: CC(C)C[C@H](NC(=O)[C@H](C)NC(=O)[C@H](C)NC(=O)[C@@H](NC(=O)[C@H](CO)NC(=O)[C@H](CC(C)C)NC(=O)[C@H](CCC(=O)O)NC(=O)[C@H](CO)NC(=O)[C@H](C)NC(=O)[C@H](CCC(=O)O)NC(=O)CCCCCCCCCCCCCCCCC(=O)O)[C@@H](C)O)C(=O)NCC(=O)N[C@@H](CCCNC(=N)N)C(=O)N[C@@H](CC(C)C)C(=O)N[C@@H](CO)C(=O)N[C@@H](C)C(=O)N[C@@H](CCC(=O)O)C(=O)N[C@@H](CC(C)C)C(=O)N[C@@H](C)C(=O)N[C@@H](CCC(=O)O)C(=O)N[C@@H](CC(C)C)C(=O)N[C@@H](C)C(=O)N[C@H](C(=O)N[C@@H](CC(C)C)C(=O)N1CCC[C@H]1C(=O)N[C@@H](CCCNC(=N)N)C(=O)N[C@H](C(=O)N[C@@H](CCC(=O)O)C(=O)N[C@H](C(=O)NCC(=O)N1CCC[C@H]1C(=O)N[C@@H](CCC(=O)O)C(=O)N[C@@H](CO)C(=O)N1CCC[C@H]1C(N)=O)[C@@H](C)O)[C@@H](C)O)[C@@H](C)O
# B4: [N-terminal(C20 diacid-gGlu), des1, 4Q, 9V, 15Q, 16R, 19R, 21Q, 23Y, 27Q, 30S, 31Q, 32T, 33Y]mimylin (peptide)
# peptide: {C20 diacid-γGlu}-ASQLSTAVLGRLSQRLHRLQTYPRTQTGSQTY-NH2
# SMILES: CC(C)C[C@H](NC(=O)[C@H](CCCNC(=N)N)NC(=O)CNC(=O)[C@H](CC(C)C)NC(=O)[C@@H](NC(=O)[C@H](C)NC(=O)[C@@H](NC(=O)[C@H](CO)NC(=O)[C@H](CC(C)C)NC(=O)[C@H](CCC(N)=O)NC(=O)[C@H](CO)NC(=O)[C@H](C)NC(=O)CC[C@H](NC(=O)CCCCCCCCCCCCCCCCCCC(=O)O)C(=O)O)[C@@H](C)O)C(C)C)C(=O)N[C@@H](CO)C(=O)N[C@@H](CCC(N)=O)C(=O)N[C@@H](CCCNC(=N)N)C(=O)N[C@@H](CC(C)C)C(=O)N[C@@H](Cc1c[nH]cn1)C(=O)N[C@@H](CCCNC(=N)N)C(=O)N[C@@H](CC(C)C)C(=O)N[C@@H](CCC(N)=O)C(=O)N[C@H](C(=O)N[C@@H](Cc1ccc(O)cc1)C(=O)N1CCC[C@H]1C(=O)N[C@@H](CCCNC(=N)N)C(=O)N[C@H](C(=O)N[C@@H](CCC(N)=O)C(=O)N[C@H](C(=O)NCC(=O)N[C@@H](CO)C(=O)N[C@@H](CCC(N)=O)C(=O)N[C@H](C(=O)N[C@@H](Cc1ccc(O)cc1)C(N)=O)[C@@H](C)O)[C@@H](C)O)[C@@H](C)O)[C@@H](C)O
# B5: [N-terminal(C20 diacid-gGlu), des1, 2L, 4Q, 8L, 9V, 15Q, 16R, 19R, 21Q, 23Y, 27Q, 30S, 31Q, 32T, 33Y]mimylin (peptide)
# peptide: {C20 diacid-γGlu}-LSQLSTLVLGRLSQRLHRLQTYPRTQTGSQTY-NH2
# SMILES: CC(C)C[C@H](NC(=O)CC[C@H](NC(=O)CCCCCCCCCCCCCCCCCCC(=O)O)C(=O)O)C(=O)N[C@@H](CO)C(=O)N[C@@H](CCC(N)=O)C(=O)N[C@@H](CC(C)C)C(=O)N[C@@H](CO)C(=O)N[C@H](C(=O)N[C@@H](CC(C)C)C(=O)N[C@H](C(=O)N[C@@H](CC(C)C)C(=O)NCC(=O)N[C@@H](CCCNC(=N)N)C(=O)N[C@@H](CC(C)C)C(=O)N[C@@H](CO)C(=O)N[C@@H](CCC(N)=O)C(=O)N[C@@H](CCCNC(=N)N)C(=O)N[C@@H](CC(C)C)C(=O)N[C@@H](Cc1c[nH]cn1)C(=O)N[C@@H](CCCNC(=N)N)C(=O)N[C@@H](CC(C)C)C(=O)N[C@@H](CCC(N)=O)C(=O)N[C@H](C(=O)N[C@@H](Cc1ccc(O)cc1)C(=O)N1CCC[C@H]1C(=O)N[C@@H](CCCNC(=N)N)C(=O)N[C@H](C(=O)N[C@@H](CCC(N)=O)C(=O)N[C@H](C(=O)NCC(=O)N[C@@H](CO)C(=O)N[C@@H](CCC(N)=O)C(=O)N[C@H](C(=O)N[C@@H](Cc1ccc(O)cc1)C(N)=O)[C@@H](C)O)[C@@H](C)O)[C@@H](C)O)[C@@H](C)O)C(C)C)[C@@H](C)O
# Target: T1, human amylin 3(a) receptor (human …)
# Assay: cell-based or functional assay
row,hAmylin-R funct. EC50 (pM),Binder
1,18,B1
2,629,"ASELTTAVLGRLEAELHELTTLPRTETGTGTP-NH2 [[des1, 6T, 9V, 14E, 21T, 30T, 31G, 32T]mimylin]"
3,54,B2
4,11,"LSGLSTAVLGRLSQELHELQTYPRTETGSQTY-NH2 [[des1, 2L, 4G, 9V, 15Q, 21Q, 23Y, 30S, 31Q, 32T, 33Y]mimylin]"
5,4,B3
6,5,"ASGLSTATLGRLSQELHELQTYPRTETGSGTY (ends and bridges not checked) [[des1, 4G, 9T, 15Q, 21Q, 23Y, 30S, 31G, 32T, 33Y]mimylin]"
7,8,"ASGLSTAVLGRLSQELHELQTYPRTETGSGTY (ends and bridges not checked) [[des1, 4G, 9V, 15Q, 21Q, 23Y, 30S, 31G, 32T, 33Y]mimylin]"
8,16,B4
9,46,"ASELTTAVLGRLSAELHELATLPRTETGTGTP-NH2 [[des1, 6T, 9V, 30T, 31G, 32T]mimylin]"
10,14,"ASELSTAALGHLSAELHELATLPRTETGSGSP-NH2 [[des1, 12H, 30S, 31G]mimylin]"
11,481,"{C18 diacid}-EASELSTAALGRLSAELHELATLPRTETGPESP-OH [[N-terminal(C18 diacid), C-terminal(-)]mimylin]"
12,5,"EASELSTAALGRLSAELHELATLPRTETGSGSP-NH2 [[30S, 31G]mimylin]"
13,23600,EASELSTAALGRLSAELHELATLPRTETGPESP-OH [[C-terminal(-)]mimylin]
14,10,B5
15,7,"ASEVSTAVLGRLSAELHELATLPRTETGSGSP-NH2 [[des1, 5V, 9V, 30S, 31G]mimylin]"

# Target: T2, human calcitonin receptor
# Assay: cell-based or functional assay
row,hCTR funct. EC50 (pM),Binder
1,15,B1
2,103,"ASELTTAVLGRLEAELHELTTLPRTETGTGTP-NH2 [[des1, 6T, 9V, 14E, 21T, 30T, 31G, 32T]mimylin]"
3,45,B2
4,6,"LSGLSTAVLGRLSQELHELQTYPRTETGSQTY-NH2 [[des1, 2L, 4G, 9V, 15Q, 21Q, 23Y, 30S, 31Q, 32T, 33Y]mimylin]"
5,3,B3
6,4,"ASGLSTATLGRLSQELHELQTYPRTETGSGTY (ends and bridges not checked) [[des1, 4G, 9T, 15Q, 21Q, 23Y, 30S, 31G, 32T, 33Y]mimylin]"
7,4,"ASGLSTAVLGRLSQELHELQTYPRTETGSGTY (ends and bridges not checked) [[des1, 4G, 9V, 15Q, 21Q, 23Y, 30S, 31G, 32T, 33Y]mimylin]"
8,15,B4
9,9,"ASELTTAVLGRLSAELHELATLPRTETGTGTP-NH2 [[des1, 6T, 9V, 30T, 31G, 32T]mimylin]"
10,3,"ASELSTAALGHLSAELHELATLPRTETGSGSP-NH2 [[des1, 12H, 30S, 31G]mimylin]"
11,45,"{C18 diacid}-EASELSTAALGRLSAELHELATLPRTETGPESP-OH [[N-terminal(C18 diacid), C-terminal(-)]mimylin]"
12,2,"EASELSTAALGRLSAELHELATLPRTETGSGSP-NH2 [[30S, 31G]mimylin]"
13,840,EASELSTAALGRLSAELHELATLPRTETGPESP-OH [[C-terminal(-)]mimylin]
14,12,B5
15,2,"ASEVSTAVLGRLSAELHELATLPRTETGSGSP-NH2 [[des1, 5V, 9V, 30S, 31G]mimylin]"
